Ends that are not written are not given here.
Columns and labels:
IGF1 receptor = assay: competition binding assay with 125I-labeled IGF1 on the IGF1 receptor; reference IGF1
insulin receptor = assay: competition binding assay with 125I-labeled insulin on the insulin receptor; reference human insulin

GSLDESFYDWFERQLGGGSGGSSLEEEWAQIQCEVWGRGCPSY-NH2 (cysteine pairing not given here) [PIRA S661 (…-amide)]
fold lower affinity than IGF1 (IGF1 receptor): 200000 fold
affinity relative to human insulin (insulin receptor): 48%

Reference: patent US20090197805A1, “Insulin receptor antagonists and related compositions, uses and methods” (Novo Nordisk A/S, priority 2005, published 2009)
